The values below come from patent US20160340442A1 (Dana-Farber, published 2016).

Where a chain is given by its changes, count along the chain named.

In experiment [1] the target is T1, cell surface MUC1-C protein (human, UniProt P15941 1098-1255).
T1 sequence: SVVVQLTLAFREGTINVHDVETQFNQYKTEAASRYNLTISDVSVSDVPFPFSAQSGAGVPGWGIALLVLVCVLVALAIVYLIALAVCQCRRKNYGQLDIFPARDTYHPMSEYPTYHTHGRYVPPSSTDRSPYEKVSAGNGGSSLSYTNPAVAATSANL
As to the kind of experiment: cell-based or functional assay.

In experiment [2] the target is T2, MUC1-CQC→AQA mutant (human, UniProt P15941 1098-1255).
T2 construct: also called HCT116/MUC1-CQC→AQA mutant cells
T2 chain: T1 sequence with C87A, C89A
The experiment in a line: flow cytometry, HCT116/MUC1-CQC→AQA mutant cells. The protocol:
FIG. 37. HCT116/MUC1-wild-type and HCT116/MUC1-CQC→AQA mutant cells 7B8 for 30 min, washed, incubated with goat anti-mouse immunoglobulin-flourescein-conjugated antibody (Santa Cruz Biotechnology), and fixed in 1% formaldehyde/PBS. Reactivity was detected by immunofluorescence FACScan.

Experiment [3] addresses T1, cell surface MUC1-C protein. The experiment in a line: flow cytometry, ZR-75-1 cells, competitive format with purified MUC1-C/ECD protein; 7B8 binding not abrogated. The protocol:
Characterized of 7B8 and 3D1 antibodies. Linear epitope mapping of 7B8 and 3D1 clones was performed using three overlapping peptides spanning the entire MUC1-C/ECD region (58 amino acids) were synthesized. ELISA assays were performed using 7B8 or 3D1 purified antibodies in the presence or absence of P1, P2 or P3 peptides. […] Conformational epitope mapping of 7B8 and 3D1 was performed using eight critical individual point mutants in the MUC1-C/ECD region by ELISA. […] These findings indicate that D19 is a part of the conformational core/pocket for 3D1 binding. ZR-75-1 breast carcinoma cells were used determine 7B8 or 3D1 antibody binding in a competitive format with MUC1-C/ECD and analyzed by FLOW. […] These findings indicate that the conformational binding epitopes of 7B8 and 3D1 are different. The sequencing results for hybridoma 3D1 is shown in FIG. 50 and is discussed in greater detail below.
For orientation: Flow cytometry measures light scatter and fluorescence of single cells or particles in a stream.

For experiment [4], the target named is T3, P1 (human).
T3 construct: Synthetic overlapping peptide of MUC1-C/ECD; also called peptide P1
T3 peptide: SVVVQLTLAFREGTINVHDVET
The experiment in a line: ELISA, peptide as competitor (indirect: peptide did not inhibit binding to the antigen). (An ELISA detects its analyte on a solid surface through an enzyme-linked reagent.)

Experiment [5] deals with T4, P3 (human).
T4 construct: Synthetic overlapping peptide of MUC1-C/ECD; also called peptide P3
T4 peptide: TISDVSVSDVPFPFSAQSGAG
The description is as above.

Experiment [6] concerns the target T5, P2 (human).
T5 construct: Synthetic overlapping peptide of MUC1-C/ECD; also called peptide P2
T5 peptide: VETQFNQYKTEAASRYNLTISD
Described as above.

The target in experiment [7] is T6, MUC1-C/ECD protein (human, UniProt P15941 1098-1155).
T6 construct: also called MUC1-C/ECD antigen; the antigen
T6 sequence: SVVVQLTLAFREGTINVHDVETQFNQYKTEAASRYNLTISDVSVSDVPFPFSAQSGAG
The experiment in a line: ELISA, plates coated with the MUC1-C/ECD antigen.

Experiment [8] concerns the target T7, bacterially-produced MUC1-C/ECD protein (human, UniProt P15941 1098-1155).
T7 construct: Produced in bacteria; also called MUC1 proteins made in bacteria; p58-mFc
T7 sequence: T6 sequence
As to the kind of experiment: Western blot.

For experiment [9], the target named is T8, MUC1-C/ECD-hFc (human, UniProt P15941 1098-1155).
T8 construct: The screening text says the antigen was MUC1-C/ECD-mFc or MUC1-C/ECD-hFc; the hFc form is used here because hFc alone was the negative control; also called hFc-MUC1-C/ECD; MUC1-ECD-hFc; not shown: human Fc (hFc)
T8 sequence: T6 sequence
As to the kind of experiment: hybridoma screen, indirect ELISA or Western blot; antigen MUC1-C/ECD-mFc or MUC1-C/ECD-hFc. The protocol: ELISA. ELISA was performed by coating the plates with 100 μl of 1 μg/ml MUC1-C/ECD-hFc or MUC1-C/ECD-mFc or hFc (as negative control). Hybridoma supernatants or immune sera were screened against the coated proteins by incubating with the plate for 1 hr. The bound antibody was detected by incubating with specific secondary antibody (anti-mouse Ig, F(ab)₂ specific) conjugated to HRP (horse radish peroxidase). Further, the reaction was developed with HRP-specific substrate for 30 min and the plate was read at 405 nm.
Fusion for Hybridoma and Primary Screening. Based on the results obtained from the ELISA, spleen from both mice was used for fusion with myeloma cells to generate hybridoma. Spleen-myeloma fusion was performed by mixing mouse myeloma cells sp2/0-Ag14 and splenocytes in 1:3 ratio in the presence of polyethylene glycol (PEG). Post fusion cell culture was carried out in selective HAT medium. Hybridomas selected by indirect ELISA or Western blot using recombinant MUC-C/ECD-mFc or MUC1-C/ECD-hFc as the antigen and were subjected to subcloning by limiting dilution protocol until the clones become stable. The fusion clones obtained from the spleen of mouse 1 is termed as 315.1 clones and similarly the one from mouse 2 is called 315.2 clones. The fusion clones obtained from the spleen of mouse 1 from other immunization batch is termed as 384 clones. […]

Experiment [10] has as its target T1, cell surface MUC1-C protein. As to the kind of experiment: surface staining, flow cytometry, ZR-75-1 cells (third row); 2 µg antibody/sample.
Experiment [11] shares this target. As to the kind of experiment: surface staining, flow cytometry, K562 MUC1-siRNA cells (MUC1 silenced); 2 µg antibody/sample.
The target is the same in experiment [12]. As to the kind of experiment: surface staining, flow cytometry, K562 CML cells; 2 µg antibody/sample.
The target is the same in experiment [13]. As to the kind of experiment: surface staining, flow cytometry, KU812 CML cells; 2 µg antibody/sample.
The target is the same in experiment [14]. The experiment in a line: surface staining, flow cytometry, K562 CTL-siRNA cells; 2 µg antibody/sample; fixed samples kept at 4° C. for 4 days.
The target in experiment [15] is T6, MUC1-C/ECD protein. The experiment in a line: ELISA, plates coated with the antigen, multiple antibody concentrations. The protocol: FIG. 38. ELISA assays were performed by coating plates with the antigen and reactivity with multiple different concentrations of purified antibodies 7B8, 4G5 and 2B11.
Experiment [16] addresses T1, cell surface MUC1-C protein. The experiment in a line: flow cytometry, ZR-75-1, MCF-7 and HCT-116/MUC1 cells. The source says: FIG. 35. […] Reactivity was detected by immunofluorescence FACScan.
FIG. 36. […] Reactivity was detected by immunofluorescence FACScan.

B1: 7B8-MMAF (other)
VH: QVQLQQPGAELVKPGASEKLSCKASGHTFTSYWMHWVKQRPGQGLEWIGEINPSNGRTYYNENFKTKATLTVDKYSSSASMQLRSLTSEDSAVYYCASDGDYVSGFAYWGQGTTLTVSS
VL: DIVLTQSPGSLAVSLGQSVTISCRASESVQYSGTSLMHWYQQKPGQPPKLLIYGASNVETGVPARFSGSGSGTDFSLNIHPVEEDDIAMYFCQQNWKVPWTFGGGTKLEIK
modifications: monomethyl auristatin F (MMAF) via cleavable linker valine-citrulline-p-aminobenzyl (Val-Cit-PAB); attachment residues not stated
In the case of B1, in experiment [1], the “dose-dependent inhibition of proliferation in ZR-75-1 breast carcinoma cells, IC50” value is ~0.86 nM.

B2: 400.6.7B8.G3.G1 (antibody, IgG2a, V domains shown)
VH: B1 VH
VL: B1 VL
For the molecule B2, the binding result in [2] is reported as “binds”; in experiment [3], “binds”; in experiment [4], “no binding”; in experiment [5], “no binding”; in experiment [6], “no binding”; in [7], “binds”.

B3: 384.1.2H11.F2.G6 (antibody, V domains shown)
VH: QIQLVQSGPELKKPGETVKTSCKASGYTFTGYSMHWVKQAPGKGLKWMGWINTETGEPTYADDFKGRFALSLETSASTTYLQINNLKNEDTATYFCVRGTGGDDWGQGTTLTVSS
VL: DVVMTQTPLSLPVSLGDQASISCRSSQSLVHSNGNTYLHWYLQKPGQSPKLLIYKVSNRFSGVPDRFSGSGSGTDFTLKINRVEAEDLGVYFCSQGTHVPPTFGGGTKLEIKR
notes: The printed entries run a few residues into the constant regions; also called 384.2H11.F2.G6
Turning to B3, the binding result in experiment [8] and in experiment [9] was “binds” throughout.

B4: 315.1.6A6.C11.G5 (antibody, V domains shown)
VH: QVQLKESGPGLVAPSQSLSMTCTVSGFSLTTYGVHWVRQPPGKGLEWLVVIWSDGSTTYNSPLKSRLSISRDNSKSQVFLKMNSLQADDTAIYYCAKNYLGSLDYWGQGTSVTVSS
VL: DVVLTQTPLSLPVSLGDQASISCRSSQSLVHNNGDTYLHWYLQKPGQSPKLLIYKVSNRFSGVPDRFSGSGSGTDFTFKISRVEAEDLGVYFCSQTTHVPLTFGAGTKLELK
notes: also called MAb 6A6; Clone 6A6
As for B4, the “flow cytometry value (unit not given)” value in experiment [10] is 2.16; in [11] it was 6.26; in [12], 9.31; in experiment [13], 31.6; in [14], 22.6.

B5: 315.2.8F1.D2.D1 (antibody, V domains shown)
VH: EVQLVESGGGLVQPGESLKLSCESNEYEFPSHDMSWVRKTPEKRLELVAAINSDGGSTYYPDTMERRFIISRDNTKKTLYLQMSSLRSEDTALYYCVRLYYGNVMDYWGQGTSVTVSS
VL: B4 VL with L4M, N32S, D35N, H39Y, F78L, T96S
notes: also called Clone 8F1; P58-8F1
On to B5, for which the “flow cytometry value (unit not given)” value in [10] was found to be 1.57; in experiment [11], 6.37; in experiment [12], 9.58; in [13], 39.9; in [14] it was 34.4.

B6: 315.2.8E1.F7.C3.H7.H8.F5 (antibody, V domains shown)
VH: B5 VH
VL: B4 VL with L4M, N32S, D35N, H39Y, F78L, T96S
notes: also called MAb 8E1; Clone 8E1
In the case of B6, the “flow cytometry value (unit not given)” value was 1.61 in experiment [10]; 6.91 in experiment [11]; 8.65 in experiment [12]; 39.6 in experiment [13]; 22.4 in [14].

B7: 400.6.2B11.D5.F6 (antibody, IgG1, V domains shown)
VH: QVQLQQSGAELMKPGASVKISCKAIGFTFNYFWIEWVKQRPGHGLEWIGEILPGTGSTNYNEKFKGKAIFTADTSSNTAYMQLRSLTSEDSAVYYCVRYDYTSSMDYWGQGTSVTVSS
VL: NIVMTQSPKSMSMSVGERVTLTCKASENVGTYVSWYQQKPEQSPKLLIYGASNRYTGVPNRFTGSGSATDFTLTISSVQAEDLADYYCGQSYSYPWTFGGGTKLEIK
In the case of B7, the binding result in experiment [15] was “binds”; in experiment [16], “binds”; in experiment [4], “no binding”; in experiment [5] it was “no binding”; in [6], “no binding”.

B8: 400.6.4G5.E11.G2 (antibody, IgG1, V domains shown)
VH: QITLKESGPGILQPSQTLSLTCSFSGFSLSTSGMGVSWIRQPSGKGLEWLSHIYWDDDKRYNPSLKSRLSISKDTSRNQVFLKITSVDTADTATYYCAPGVSSWFPYWGPGTLVTVSA
VL: SIVMTQTPKFLPVSAGDRVTVTCKASQSVGNYVAWYQQKPGQSPKLLIYFASNRYSGVPDRFTGSGSGTDFTFTISSVQVEDLAVYFCQQHYIFPYTFGSGTKLEIK
Regarding B8, the binding result in [15] is “binds”; in [16], “binds”; in [4] it was “no binding”; in experiment [5], “no binding”; in [6] it was “no binding”.
